From patent US7303752B2, “Hookworm vaccine” (The George Washington University, priority 2001, dated 2007)

B1: Na-ASP-1: Necator americanus secreted protein antigen, SEQ ID NO: 2; Pichia-expressed recombinant (protein, listed as Necator americanus)
chain: MFSPVVVSVVFTIAFCNASPARDSFGCSNSGITDSDRQAFLDFHNNARRRVAKGLEDSNSGKLNPAKNMYKLSWDCAMEQQLQDAIQSCPSGFAGIQGVAQNTMSWSSSGGYPDPSVKIEPTLSGWWSGAKKNGVGPDNKYTGGGLFAFSNMVYSETTKLGCAYKVCGTKLAVSCIYNGVGYITNQPMWETGQACQTGADCSTYKNSGCEDGLCTKGPDVPETNQQCPSNTGMTDSVRDTFLSVHNEFRSSVARGLEPDALGGNAPKAAKMLKMVYDCEVEASAIRHGNKCVYQHSHGEDRPGLGENIYKTSVLKFDKNKAAKQASQLWWNELKEYGVGPSNVLTTALWNRPNMQIGHYTQMAWDTTYKLGCAVVFCNDFTFGVCQYGPGGNYMGHVIYTMGQPCSQCSPGATCSVTEGLCSAP
B2: Ac-AP: A. caninum factor Xa inhibitor anticoagulant, SEQ ID NO: 54; * marks the single dog with positive immune response (protein, listed as Ancylostoma caninum)
chain: KAYPECGENEWLDDCGTQKPCEAKCNEEPPEEEDPICRSRGCLLPPACVCKDGFYRDTVIGDCVREEECDQHEIIHV

Assays:
[1] = tested on: CD-4+lymphocytes; experiment: Intracellular cytokine staining of antigen-stimulated CD4+ lymphocytes of hookworm-infected residents; assay type: cell-based, human; settings: CD4+ lymphocytes from whole blood of hookworm infected residents
Protocol: The underlying immunological mechanisms accounting for this observation has been investigated. Shown in FIGS. 40 and 41, CD-4+lymphocytes were gated from the whole blood of hookworm infected residents and stimulated with either L3 soluble hookworm antigen FIG. 40) or Pichia-expressed recombinant Na-ASP-1 (FIG. 41). Host cytokine production was measured by an intracellular cytokine staining technique. […] IL-10 is a strong immunomodulator with downregulatory, anti-inflammatory properties, and IL-4 is associated with antibody production and TH-2 type immunity.

[2] = tested on: antigen-specific canine IgG1 antibodies; experiment: ELISA of antigen-specific canine IgG1, trial with Ac-TMP, Ac-AP, Ac-APR-1; assay type: in vivo, dog; settings: five of the six vaccinated dogs
Protocol: Canine Immunizations: A four-dose immunization schedule was selected (Table II). Each of the dogs was vaccinated by subcutaneous immunization at two sites in the shoulder, through a 22 gauge needle. The volume of the injections ranged between 0.5 and 1.0 ml. Four doses of each antigen were administered over a 38-day period. The first two injections (primary immunization) were administered on days 1 and 4, and the final two immunizations (boosts) were administered on days 34 and 38. Dogs in the control group were injected with an equivalent amount of alum.
Canine antibody measurements: Blood was collected weekly by venipuncture and the serum was separated and stored frozen at −20° C. Antigen-specific canine IgG1 antibodies were measured by indirect enzyme-linked immunosorbent assay (ELISA). Other IgG subclasses were not measured due to the unavailability of suitable high-quality canine-specific reagents. The optimal concentrations of sample sera and enzyme-linked detection antibody were determined by checkerboard titrations. Optimal antigen concentrations were determined by using a saturation technique. […] The plates were incubated in the dark for 30 minutes and read at a wavelength of 405 nm on a SpectraMax 240 PC reader (Molecular Devices, Sunnyvale, Calif.) with SOFTmax Pro software (Molecular Devices, Sunnyvale, Calif.). […]

[3] = tested on: A. caninum; experiment: Canine vaccine trial with Ac-TMP, Ac-AP, Ac-APR-1, oral challenge with 400 A. caninum L3; assay type: in vivo, dog
Text: Study dogs and animal husbandry: Following protocol approval by The George Washington University Institutional Animal Care and Use Committee (IACUC), purpose bred, parasite naïve, male beagles 8±1 week of age were purchased, identified by ear tattoo, and maintained in the AALAC (Association for Assessment and Accreditation of Laboratory Animal Care) accredited George Washington University Animal Research Facility. The dogs were housed in a room dedicated for the study, at a room temperature of 70±4° F., with 10-15 air changes per hour comprised of 100 percent fresh air, and 12 hr light cycles alternating with 12 hr dark cycles. The airflow and timer functions were monitored daily. The dogs were fed on a diet of Teklad Certified Dog Chow #8727, supplemented with a canned soft diet in the event of anorexia. The drinking water was piped from a filter plant and delivered via automatc water system; water analysis was performed by the U.S. Army Corps of Engineers. Water from the facilities automatic system is cultured for bacteria and fungi annually. The pens were flushed daily and sanitized every two weeks. Dogs within a given study group were permitted to live together and socialize prior to the hookworm larval challenge, but were caged individually post-infection. All dogs were quarantined for approximately one week before beginning the vaccine trial. Prior to vaccination a complete blood count (CBC), serum chemistries, and a pre-vaccination serum sample were obtained.
Vaccine study design and sample size: The vaccine trial was designed to test three different antigens, each formulated with alum, as well as an alum adjuvant control. A total of 24 dogs were randomly assigned into four groups comprised of 6 dogs each. The canine sample size was selected on the ability to detect a 40-50 percent reduction in the numbers of adult hookworms in the small intestines of the vaccinated group relative to control dogs, at a statistical power of 80 percent (alpha=0.05, two-tailed). The data were derived from the mean and standard deviation of adult hookworms previously recovered from age-matched dogs infected with 400 A. caninum L3 (Hotez et al, 2002).
Recombinant Antigens: Each group of 6 dogs was vaccinated with recombinant hookworm proteins expressed as fusion proteins either in Escherichia coli or in an insect cell line with baculovirus. Ac-AP (Cappello et al, 1995; 1996) and Ac-TMP, were expressed in E. coli as pET 28 (Novagen) fusion proteins containing a polyhistidine tag (Cappello et al, 1996). Ac-APR-1 (Harrop et al, 1996) was expressed in a baculovirus pBacPAK6 vector (Clontech), modified to contain a polyhistidine-encoding sequence and additional restriction enzyme sites (Brindley et al, 2001). Recombinant Ac-AP and Ac-TMP fusion proteins were then purified by nickel affinity chromatography, followed by a second step of purification. In the case of Ac-AP (Cappello et al, 1995; 1996), the recombinant protein was purified by mono-S (Amersham-Pharmacia) ion exchange chromatography, while Ac-TMP (Zhan et al, 2002) was purified by superdex 75 (Amersham-Pharmacia) gel filtration chromatography. Ac-APR-1 (Harrop et al, 1996) was purified by substrate affinity chromatography using pepstatin agarose (Brindley et al, 2001). The antigen stock protein concentration was determined by Pierce Micro BCA assay (Pierce Chemicals) or by the absorbance of the sample at […] using an extinction coefficient that was calculated from the deduced amino acid composition of the fusion protein. The amount of alum adsorbed protein in each dose of antigen was measured by the Pierce Micro BCA assay using a bovine serum albumin standard. The relative purity of each of the antigens relative to contaminating E. coli or insect cell proteins was determined by analysis on sodium dodecyl sulfate polyacrylamide gel electrophoresis (SDS-PAGE). […]

[4] = single dog with positive immune response

| Molecule | host cytokine production [1] | immunological response to the antigen [2] | % Decrease of adult hookworms in the small intestines relative to alum-injected dogs ([3]; group) | % Increase of adult hookworms in the colons relative to alum-injected dogs ([3]; group) | adult A. caninum hookworms in the colons, Median ([3]; group median, alum control 4) | adult hookworms in the small intestines, Median ([3]; group median, alum control 180) | small intestine to colon hookworm burden ratio ([3]; single dog with anti-Ac-AP antibody response) | % Decrease of adult hookworms in the small intestine relative to alum-injected dogs [3, 4] | % Increase of adult hookworms in the colon relative to alum-injected dogs [3, 4] | adult A. caninum hookworms in the colon, Mean [3, 4] | adult A. caninum hookworms in the colon, Median [3, 4] | adult hookworms in the small intestine, Mean [3, 4] | adult hookworms in the small intestine, Median [3, 4] |
| --- | --- | --- | --- | --- | --- | --- | --- | --- | --- | --- | --- | --- | --- |
| B1 | high levels of IL-10 and IL-5, but not IL-4 | – | – | – | – | – | – | – | – | – | – | – | – |
| B2 | – | failed to respond immunologically | 4.5% | 183% | 14 | 170 | 1.6 | 34.7% | 1083% | 71 | 71 | 115 | 115 |
